T1: Placenta Growth Factor (PlGF), human (human, UniProt P49763 21-149)
T1 chain: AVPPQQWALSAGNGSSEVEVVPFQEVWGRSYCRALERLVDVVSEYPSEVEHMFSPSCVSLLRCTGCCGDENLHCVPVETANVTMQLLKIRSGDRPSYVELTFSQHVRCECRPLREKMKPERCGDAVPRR


Assays:
[1] = biological target: Hepatocyte Growth Factor (HGF), human (human, UniProt P14210 32-728); assay: ELISA
[2] = biological target: T1, Placenta Growth Factor (PlGF), human; assay: ELISA

Sequence of Hepatocyte Growth Factor (HGF), human (P14210 32-728): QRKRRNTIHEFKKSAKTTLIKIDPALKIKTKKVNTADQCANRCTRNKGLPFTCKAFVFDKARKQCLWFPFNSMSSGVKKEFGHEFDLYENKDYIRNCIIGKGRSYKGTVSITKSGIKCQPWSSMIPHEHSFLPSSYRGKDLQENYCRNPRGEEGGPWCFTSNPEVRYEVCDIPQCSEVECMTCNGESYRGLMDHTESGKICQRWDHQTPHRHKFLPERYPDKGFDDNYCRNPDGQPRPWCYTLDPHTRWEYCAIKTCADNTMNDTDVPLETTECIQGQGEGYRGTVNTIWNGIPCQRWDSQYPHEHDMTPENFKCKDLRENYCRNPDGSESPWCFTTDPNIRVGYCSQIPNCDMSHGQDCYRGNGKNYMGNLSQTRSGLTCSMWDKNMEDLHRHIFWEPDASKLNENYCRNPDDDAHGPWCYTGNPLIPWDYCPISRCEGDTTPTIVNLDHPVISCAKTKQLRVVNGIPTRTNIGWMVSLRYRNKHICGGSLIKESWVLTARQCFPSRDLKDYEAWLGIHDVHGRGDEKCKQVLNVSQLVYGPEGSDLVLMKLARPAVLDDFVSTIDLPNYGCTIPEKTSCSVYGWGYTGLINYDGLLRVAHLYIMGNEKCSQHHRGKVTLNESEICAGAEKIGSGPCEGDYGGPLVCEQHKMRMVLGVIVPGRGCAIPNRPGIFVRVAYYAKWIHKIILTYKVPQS

| Binder | EC50 [1] [nM] | EC50 [2] [nM] |
| --- | --- | --- |
| HC 8/SLC 2 (antibody) chain 1: GQGTLVTVSSASTKGPSVQPVLHQPPAMSSALGTTIRLTCTLRNDHDIGVYSVYWYQQRPGHPPRFLLRYFSQSDKSQGPQVPPRFSGSKDVARNRGYLSISELQPEDEAMYYCAMGARSRCWPRGFQSKHNSVTHVFGSGTQLTVLSQPKATPSVTLFPPSSEELQANKATLVCLMNDFYPGILTVTWKADGTPITQGVEMTTPSKQSNNKYAASSYLSLTPEQWRSRRSYSCQVMHEGSTVEKTVAPAECS chain 2: MSWAPVLLMLFVYCTGCGPQPVLHQPPAMSSALGTTIRLTCTLRNDHDIGVYSVYWYQQRPGHPPRFLLRYFSQSDKSQGPQVPPRFSGSKDVARNRGYLSISVTHVFGSGTQLTVLSQQVQLVQ | 0.059 | 0.227 |
| HC 8/SLC 8 (antibody) chain 1: GQGTLVTVSSASTKGPSVQPVLHQPPAMSSALGTTIRLTCTLRNDHDIGVYSVYWYQQRPGHPPRFLLRYFSQSDKSQGPQVPPRFSGSKDVARNRGYLSISELQPEDEAMYYCAMGARSRCWPRGFQSKHNSVTHVFGSGTQLTVLSQPKATPSVTLFPPSSEELQANKATLVCLMNDFYPGILTVTWKADGTPITQGVEMTTPSKQSNNKYAASSYLSLTPEQWRSRRSYSCQVMHEGSTVEKTVAPAECS chain 2: MSWAPVLLMLFVYCTGCGPQPVLHQPPAMSSALGTTIRLTCTLRNDHDIGVYSVYWYQQRPGHPPRFLLRYFSQSDKSQGPQVPPRFSGSKDVARNRGYLSISVTHVFGSGTQLTVLSQPKATPSQVQLVQ | 0.056 | 0.069 |
| HC 8/SLC 9 (antibody) chain 1: GQGTLVTVSSASTKGPSVQPVLHQPPAMSSALGTTIRLTCTLRNDHDIGVYSVYWYQQRPGHPPRFLLRYFSQSDKSQGPQVPPRFSGSKDVARNRGYLSISELQPEDEAMYYCAMGARSRCWPRGFQSKHNSVTHVFGSGTQLTVLSQPKATPSVTLFPPSSEELQANKATLVCLMNDFYPGILTVTWKADGTPITQGVEMTTPSKQSNNKYAASSYLSLTPEQWRSRRSYSCQVMHEGSTVEKTVAPAECS chain 2: MSWAPVLLMLFVYCTGCGPQPVLHQPPAMSSALGTTIRLTCTLRNDHDIGVYSVYWYQQRPGHPPRFLLRYFSQSDKSQGPQVPPRFSGSKDVARNRGYLSISVTHVFGSGTQLTVLSQPKATPSVQVQLVQ | 0.049 | 0.045 |
| HC 9/SLC 7 (antibody) chain 1: GQGTLVTVSSASTKGPSVFQPVLHQPPAMSSALGTTIRLTCTLRNDHDIGVYSVYWYQQRPGHPPRFLLRYFSQSDKSQGPQVPPRFSGSKDVARNRGYLSISELQPEDEAMYYCAMGARSRCWPRGFQSKHNSVTHVFGSGTQLTVLSQPKATPSVTLFPPSSEELQANKATLVCLMNDFYPGILTVTWKADGTPITQGVEMTTPSKQSNNKYAASSYLSLTPEQWRSRRSYSCQVMHEGSTVEKTVAPAECS chain 2: MSWAPVLLMLFVYCTGCGPQPVLHQPPAMSSALGTTIRLTCTLRNDHDIGVYSVYWYQQRPGHPPRFLLRYFSQSDKSQGPQVPPRFSGSKDVARNRGYLSISVTHVFGSGTQLTVLSQPKATPQVQLVQ | 0.059 | 0.063 |
| HC 9/SLC 8 (antibody) chain 1: GQGTLVTVSSASTKGPSVFQPVLHQPPAMSSALGTTIRLTCTLRNDHDIGVYSVYWYQQRPGHPPRFLLRYFSQSDKSQGPQVPPRFSGSKDVARNRGYLSISELQPEDEAMYYCAMGARSRCWPRGFQSKHNSVTHVFGSGTQLTVLSQPKATPSVTLFPPSSEELQANKATLVCLMNDFYPGILTVTWKADGTPITQGVEMTTPSKQSNNKYAASSYLSLTPEQWRSRRSYSCQVMHEGSTVEKTVAPAECS chain 2: MSWAPVLLMLFVYCTGCGPQPVLHQPPAMSSALGTTIRLTCTLRNDHDIGVYSVYWYQQRPGHPPRFLLRYFSQSDKSQGPQVPPRFSGSKDVARNRGYLSISVTHVFGSGTQLTVLSQPKATPSQVQLVQ | 0.061 | 0.063 |
| HC 3/SLC 6 (antibody) chain 1: GQGTLVTVSSASTQPVLHQPPAMSSALGTTIRLTCTLRNDHDIGVYSVYWYQQRPGHPPRFLLRYFSQSDKSQGPQVPPRFSGSKDVARNRGYLSISELQPEDEAMYYCAMGARSRCWPRGFQSKHNSVTHVFGSGTQLTVLSQPKATPSVTLFPPSSEELQANKATLVCLMNDFYPGILTVTWKADGTPITQGVEMTTPSKQSNNKYAASSYLSLTPEQWRSRRSYSCQVMHEGSTVEKTVAPAECS chain 2: MSWAPVLLMLFVYCTGCGPQPVLHQPPAMSSALGTTIRLTCTLRNDHDIGVYSVYWYQQRPGHPPRFLLRYFSQSDKSQGPQVPPRFSGSKDVARNRGYLSISVTHVFGSGTQLTVLSQPKATQVQLVQ | 0.057 | 0.163 |
| HC 4/SLC 6 (antibody) chain 1: GQGTLVTVSSASTKQPVLHQPPAMSSALGTTIRLTCTLRNDHDIGVYSVYWYQQRPGHPPRFLLRYFSQSDKSQGPQVPPRFSGSKDVARNRGYLSISELQPEDEAMYYCAMGARSRCWPRGFQSKHNSVTHVFGSGTQLTVLSQPKATPSVTLFPPSSEELQANKATLVCLMNDFYPGILTVTWKADGTPITQGVEMTTPSKQSNNKYAASSYLSLTPEQWRSRRSYSCQVMHEGSTVEKTVAPAECS chain 2: MSWAPVLLMLFVYCTGCGPQPVLHQPPAMSSALGTTIRLTCTLRNDHDIGVYSVYWYQQRPGHPPRFLLRYFSQSDKSQGPQVPPRFSGSKDVARNRGYLSISVTHVFGSGTQLTVLSQPKATQVQLVQ | 0.063 | 0.208 |
| HC 3/SLC 9 (antibody) chain 1: GQGTLVTVSSASTQPVLHQPPAMSSALGTTIRLTCTLRNDHDIGVYSVYWYQQRPGHPPRFLLRYFSQSDKSQGPQVPPRFSGSKDVARNRGYLSISELQPEDEAMYYCAMGARSRCWPRGFQSKHNSVTHVFGSGTQLTVLSQPKATPSVTLFPPSSEELQANKATLVCLMNDFYPGILTVTWKADGTPITQGVEMTTPSKQSNNKYAASSYLSLTPEQWRSRRSYSCQVMHEGSTVEKTVAPAECS chain 2: MSWAPVLLMLFVYCTGCGPQPVLHQPPAMSSALGTTIRLTCTLRNDHDIGVYSVYWYQQRPGHPPRFLLRYFSQSDKSQGPQVPPRFSGSKDVARNRGYLSISVTHVFGSGTQLTVLSQPKATPSVQVQLVQ | 0.049 | 0.13 |
| HC 7/SLC 3 (antibody) chain 1: GQGTLVTVSSASTKGPSQPVLHQPPAMSSALGTTIRLTCTLRNDHDIGVYSVYWYQQRPGHPPRFLLRYFSQSDKSQGPQVPPRFSGSKDVARNRGYLSISELQPEDEAMYYCAMGARSRCWPRGFQSKHNSVTHVFGSGTQLTVLSQPKATPSVTLFPPSSEELQANKATLVCLMNDFYPGILTVTWKADGTPITQGVEMTTPSKQSNNKYAASSYLSLTPEQWRSRRSYSCQVMHEGSTVEKTVAPAECS chain 2: MSWAPVLLMLFVYCTGCGPQPVLHQPPAMSSALGTTIRLTCTLRNDHDIGVYSVYWYQQRPGHPPRFLLRYFSQSDKSQGPQVPPRFSGSKDVARNRGYLSISVTHVFGSGTQLTVLSQPQVQLVQ | 0.067 | 0.182 |
| HC 7/SLC 6 (antibody) chain 1: GQGTLVTVSSASTKGPSQPVLHQPPAMSSALGTTIRLTCTLRNDHDIGVYSVYWYQQRPGHPPRFLLRYFSQSDKSQGPQVPPRFSGSKDVARNRGYLSISELQPEDEAMYYCAMGARSRCWPRGFQSKHNSVTHVFGSGTQLTVLSQPKATPSVTLFPPSSEELQANKATLVCLMNDFYPGILTVTWKADGTPITQGVEMTTPSKQSNNKYAASSYLSLTPEQWRSRRSYSCQVMHEGSTVEKTVAPAECS chain 2: MSWAPVLLMLFVYCTGCGPQPVLHQPPAMSSALGTTIRLTCTLRNDHDIGVYSVYWYQQRPGHPPRFLLRYFSQSDKSQGPQVPPRFSGSKDVARNRGYLSISVTHVFGSGTQLTVLSQPKATQVQLVQ | 0.062 | 0.153 |
| HC 5/SLC 5 (antibody) chain 1: GQGTLVTVSSASTKGQPVLHQPPAMSSALGTTIRLTCTLRNDHDIGVYSVYWYQQRPGHPPRFLLRYFSQSDKSQGPQVPPRFSGSKDVARNRGYLSISELQPEDEAMYYCAMGARSRCWPRGFQSKHNSVTHVFGSGTQLTVLSQPKATPSVTLFPPSSEELQANKATLVCLMNDFYPGILTVTWKADGTPITQGVEMTTPSKQSNNKYAASSYLSLTPEQWRSRRSYSCQVMHEGSTVEKTVAPAECS chain 2: MSWAPVLLMLFVYCTGCGPQPVLHQPPAMSSALGTTIRLTCTLRNDHDIGVYSVYWYQQRPGHPPRFLLRYFSQSDKSQGPQVPPRFSGSKDVARNRGYLSISVTHVFGSGTQLTVLSQPKAQVQLVQ | 0.063 | 0.256 |
| HC 6/SLC 5 (antibody) chain 1: GQGTLVTVSSASTKGPQPVLHQPPAMSSALGTTIRLTCTLRNDHDIGVYSVYWYQQRPGHPPRFLLRYFSQSDKSQGPQVPPRFSGSKDVARNRGYLSISELQPEDEAMYYCAMGARSRCWPRGFQSKHNSVTHVFGSGTQLTVLSQPKATPSVTLFPPSSEELQANKATLVCLMNDFYPGILTVTWKADGTPITQGVEMTTPSKQSNNKYAASSYLSLTPEQWRSRRSYSCQVMHEGSTVEKTVAPAECS chain 2: MSWAPVLLMLFVYCTGCGPQPVLHQPPAMSSALGTTIRLTCTLRNDHDIGVYSVYWYQQRPGHPPRFLLRYFSQSDKSQGPQVPPRFSGSKDVARNRGYLSISVTHVFGSGTQLTVLSQPKAQVQLVQ | 0.066 | 0.251 |
| HC 8/SLC 5 (antibody) chain 1: GQGTLVTVSSASTKGPSVQPVLHQPPAMSSALGTTIRLTCTLRNDHDIGVYSVYWYQQRPGHPPRFLLRYFSQSDKSQGPQVPPRFSGSKDVARNRGYLSISELQPEDEAMYYCAMGARSRCWPRGFQSKHNSVTHVFGSGTQLTVLSQPKATPSVTLFPPSSEELQANKATLVCLMNDFYPGILTVTWKADGTPITQGVEMTTPSKQSNNKYAASSYLSLTPEQWRSRRSYSCQVMHEGSTVEKTVAPAECS chain 2: MSWAPVLLMLFVYCTGCGPQPVLHQPPAMSSALGTTIRLTCTLRNDHDIGVYSVYWYQQRPGHPPRFLLRYFSQSDKSQGPQVPPRFSGSKDVARNRGYLSISVTHVFGSGTQLTVLSQPKAQVQLVQ | 0.063 | 0.289 |

Source: patent US20150045540A1 (published 2015)
